Measured values: patent US20200283478A1 (Genentech, published 2020)
Ends that are not written are not given here. * marks the point of attachment. Pentanoyl = CCCCC(=O)*

Experiments:
[1] = target: T1, His-tagged, full-length PCSK9 (human, UniProt Q8NBP7 31-692); experiment: TR-FRET competition; His-PCSK9, competitor EGF(A)-Fc
T1 construct: The secreted protein is autocleaved into a prodomain and a catalytic/Cys-rich chain that starts at S153; also called His-PCSK9
Experimental: Signal generation in the PCSK9 binding assays was dependent upon the binding interaction to bring into close proximity the His-tag on the PCSK9 and the Fc-tag on the ligand. Anti-His-APC was bound to the His-tag, and anti-Fc-europium was bound to the Fc-tag.
Compounds were solubilized and dilutions were prepared in DMSO. […] The plate was centrifuged to mix the well contents and allowed to incubate for 30 min. […] The normalized TR-FRET ratios were plotted as a function of the compound concentrations, and the IC₅₀ values were determined using a 4-parameter logistic regression.

His-tagged PCSK9Δhelix = target: T2, His-tagged PCSK9Δhelix (human, UniProt Q8NBP7 31-152; Q8NBP7 168-692); experiment: TR-FRET competition; His-PCSK9Δhelix, competitor Ab20
T2 construct: Construct M1-Q692 with engineered TEV site, cut by TEV protease; new N-terminus of the catalytic domain is S-A168; also called His-PCSK9Δhelix
T2 sequence (Q8NBP7 31-152, stated change not applied, chain 1 of 2): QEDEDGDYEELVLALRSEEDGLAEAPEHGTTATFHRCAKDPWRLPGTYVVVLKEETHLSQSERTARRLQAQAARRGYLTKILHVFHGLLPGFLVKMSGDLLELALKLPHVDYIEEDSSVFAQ
T2 sequence (Q8NBP7 other isoform, or with tags, fused parts or gaps mutant, chain 2 of 2): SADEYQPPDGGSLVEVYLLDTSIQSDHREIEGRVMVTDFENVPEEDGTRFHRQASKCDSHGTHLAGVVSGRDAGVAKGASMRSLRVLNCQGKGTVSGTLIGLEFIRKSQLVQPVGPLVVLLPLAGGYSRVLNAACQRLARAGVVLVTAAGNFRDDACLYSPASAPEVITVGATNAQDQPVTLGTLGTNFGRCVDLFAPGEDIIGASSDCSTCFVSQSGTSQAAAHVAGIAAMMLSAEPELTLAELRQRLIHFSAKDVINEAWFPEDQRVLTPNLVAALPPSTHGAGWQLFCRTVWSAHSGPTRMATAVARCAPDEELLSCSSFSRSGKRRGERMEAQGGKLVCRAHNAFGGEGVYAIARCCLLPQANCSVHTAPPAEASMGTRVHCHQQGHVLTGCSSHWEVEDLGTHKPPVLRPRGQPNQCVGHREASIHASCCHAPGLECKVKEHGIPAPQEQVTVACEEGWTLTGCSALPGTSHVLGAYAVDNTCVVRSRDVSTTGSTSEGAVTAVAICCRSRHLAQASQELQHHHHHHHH

T1 sequence (Q8NBP7 other isoform, or with tags, fused parts or gaps limits assumed): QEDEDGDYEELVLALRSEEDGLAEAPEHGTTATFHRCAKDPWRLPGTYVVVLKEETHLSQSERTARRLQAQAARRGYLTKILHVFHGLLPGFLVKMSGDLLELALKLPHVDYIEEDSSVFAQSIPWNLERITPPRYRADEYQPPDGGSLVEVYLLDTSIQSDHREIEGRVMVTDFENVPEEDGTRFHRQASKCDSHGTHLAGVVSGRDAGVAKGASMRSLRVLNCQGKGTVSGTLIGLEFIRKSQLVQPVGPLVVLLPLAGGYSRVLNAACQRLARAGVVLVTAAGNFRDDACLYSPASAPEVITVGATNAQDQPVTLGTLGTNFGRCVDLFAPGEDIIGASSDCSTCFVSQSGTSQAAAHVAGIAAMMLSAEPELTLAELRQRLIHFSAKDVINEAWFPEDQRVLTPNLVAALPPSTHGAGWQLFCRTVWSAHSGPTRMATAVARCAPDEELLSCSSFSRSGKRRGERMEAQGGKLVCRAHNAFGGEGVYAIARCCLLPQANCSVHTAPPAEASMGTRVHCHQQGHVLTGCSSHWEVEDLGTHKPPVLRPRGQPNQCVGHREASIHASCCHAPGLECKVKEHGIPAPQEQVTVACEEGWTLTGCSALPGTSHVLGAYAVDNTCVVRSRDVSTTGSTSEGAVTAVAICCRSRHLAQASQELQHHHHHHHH

IC50 [1] [µM]	IC50 (His-tagged PCSK9Δhelix) [µM]	Binder
≥ 50	8.6	WNLVRIGLLR (also: further groups not given here, Structure printed only as a drawing) [Compound 130]
≥ 50	17	WNLVRIGLLR (also: further groups not given here, Structure printed only as a drawing) [Compound 133]
≥ 50	18	{n‑PrC(O)}-WNLVRIGLLR-NH2 [Compound 123]
19	12	WNLVRIGTLR (also: further groups not given here, Structure printed only as a drawing) [Compound 184]
≥ 50	6.6	Pentanoyl-WNLKRIGLLR-NH2 (SMILES CCCCC(=O)N[C@@H](Cc1c[nH]c2ccccc12)C(=O)N[C@@H](CC(N)=O)C(=O)N[C@@H](CC(C)C)C(=O)N[C@@H](CCCCN)C(=O)N[C@@H](CCCNC(=N)N)C(=O)N[C@H](C(=O)NCC(=O)N[C@@H](CC(C)C)C(=O)N[C@@H](CC(C)C)C(=O)N[C@@H](CCCNC(=N)N)C(N)=O)[C@@H](C)CC) [Compound 159]
≥ 50	37	WNLVRIGLTR (also: further groups not given here, Structure printed only as a drawing) [Compound 163]
≥ 50	6.8	WNLVRIGLTR (also: further groups not given here, Structure printed only as a drawing) [Compound 169]
≥ 50	11	Pentanoyl-WNLVRIGLGR-NH2 (SMILES CCCCC(=O)N[C@@H](Cc1c[nH]c2ccccc12)C(=O)N[C@@H](CC(N)=O)C(=O)N[C@@H](CC(C)C)C(=O)N[C@H](C(=O)N[C@@H](CCCNC(=N)N)C(=O)N[C@H](C(=O)NCC(=O)N[C@@H](CC(C)C)C(=O)NCC(=O)N[C@@H](CCCNC(=N)N)C(N)=O)[C@@H](C)CC)C(C)C) [Compound 179]
≥ 50	18	WNLVRIGLTR (also: further groups not given here, Structure printed only as a drawing) [Compound 165]
≥ 50	18	Pentanoyl-WNLVRIGLDR-NH2 (SMILES CCCCC(=O)N[C@@H](Cc1c[nH]c2ccccc12)C(=O)N[C@@H](CC(N)=O)C(=O)N[C@@H](CC(C)C)C(=O)N[C@H](C(=O)N[C@@H](CCCNC(=N)N)C(=O)N[C@H](C(=O)NCC(=O)N[C@@H](CC(C)C)C(=O)N[C@@H](CC(=O)O)C(=O)N[C@@H](CCCNC(=N)N)C(N)=O)[C@@H](C)CC)C(C)C) [Compound 178]
5.7	0.39	WNLVRIGTLR (also: further groups not given here, Structure printed only as a drawing) [Compound 185]
≥ 50	9.8	WNLVRIGLTR (also: further groups not given here, Structure printed only as a drawing) [Compound 173]
≥ 50	43	WNLVRIGLTR (also: further groups not given here, Structure printed only as a drawing) [Compound 167]
≥ 50	12	WNLVRIGLTR (also: further groups not given here, Structure printed only as a drawing) [Compound 164]
≥ 50	5.9	WNLVRIGLTR (also: further groups not given here, Structure printed only as a drawing) [Compound 166]
≥ 50	12	Pentanoyl-WNLVRIGLAR-NH2 (SMILES CCCCC(=O)N[C@@H](Cc1c[nH]c2ccccc12)C(=O)N[C@@H](CC(N)=O)C(=O)N[C@@H](CC(C)C)C(=O)N[C@H](C(=O)N[C@@H](CCCNC(=N)N)C(=O)N[C@H](C(=O)NCC(=O)N[C@@H](CC(C)C)C(=O)N[C@@H](C)C(=O)N[C@@H](CCCNC(=N)N)C(N)=O)[C@@H](C)CC)C(C)C) [Compound 180]
14	4	WNLVRIGTLR (also: further groups not given here, Structure printed only as a drawing) [Compound 182]
≥ 50	8.9	Pentanoyl-WNLVRIGLSR-NH2 (SMILES CCCCC(=O)N[C@@H](Cc1c[nH]c2ccccc12)C(=O)N[C@@H](CC(N)=O)C(=O)N[C@@H](CC(C)C)C(=O)N[C@H](C(=O)N[C@@H](CCCNC(=N)N)C(=O)N[C@H](C(=O)NCC(=O)N[C@@H](CC(C)C)C(=O)N[C@@H](CO)C(=O)N[C@@H](CCCNC(=N)N)C(N)=O)[C@@H](C)CC)C(C)C) [Compound 181]
≥ 50	7.8	WNLVRIGLTR (also: further groups not given here, Structure printed only as a drawing) [Compound 168]
≥ 50	35	Pentanoyl-WNLVRIGLER-NH2 (SMILES CCCCC(=O)N[C@@H](Cc1c[nH]c2ccccc12)C(=O)N[C@@H](CC(N)=O)C(=O)N[C@@H](CC(C)C)C(=O)N[C@H](C(=O)N[C@@H](CCCNC(=N)N)C(=O)N[C@H](C(=O)NCC(=O)N[C@@H](CC(C)C)C(=O)N[C@@H](CCC(=O)O)C(=O)N[C@@H](CCCNC(=N)N)C(N)=O)[C@@H](C)CC)C(C)C) [Compound 177]

IC50 [1] [µM]	IC50 (His-tagged PCSK9Δhelix) [µM]	Binder
≥ 50	3.1	WNLVRIGLTR (also: further groups not given here, Structure printed only as a drawing) [Compound 170]
≥ 50	18	Pentanoyl-WNLVRIGLTR [Compound 176]
22	7.6	WNLVRIGLTR (also: further groups not given here, Structure printed only as a drawing) [Compound 188]
≥ 50	5	WNLVRIGLTR (also: further groups not given here, Structure printed only as a drawing) [Compound 161]
≥ 50	7.7	WNLVRIGLTR (also: further groups not given here, Structure printed only as a drawing) [Compound 171]
≥ 50	8.5	WNLVRIGLTR (also: further groups not given here, Structure printed only as a drawing) [Compound 172]
18	2.5	WNLVRIGTLR (also: further groups not given here, Structure printed only as a drawing) [Compound 183]
≥ 50	37	WNLVRIGLTR (also: further groups not given here, Structure printed only as a drawing) [Compound 162]
38	12	WNLVRIGLTR (also: further groups not given here, Structure printed only as a drawing) [Compound 189]
30	7	WNLVRIGLTR (also: further groups not given here, Structure printed only as a drawing) [Compound 190]
≥ 50	9	WNLVRIGLLR (also: further groups not given here, Structure printed only as a drawing) [Compound 132]
	5.6	Ac-SGDLMPWNLVRIGLLR-NH2 [Compound 122]
≥ 50	3.9	Ac-GLMPWNLVRIGLLR-NH2 [Compound 124]
≥ 50	7	Ac-GGMPWNLVRIGLLR-NH2 [Compound 125]
≥ 50	6.7	WNLVRIGLLR (also: further groups not given here, Structure printed only as a drawing) [Compound 131]
≥ 50	29	WNLVRIGLLR (also: further groups not given here, Structure printed only as a drawing) [Compound 127]
≥ 50	23	WNLVRIGLLR (also: further groups not given here, Structure printed only as a drawing) [Compound 129]
≥ 50	7.5	WNLVRIGLLR (also: further groups not given here, Structure printed only as a drawing) [Compound 128]
≥ 50	19	WNLVRIGLLR (also: further groups not given here, Structure printed only as a drawing) [Compound 126]
